Experimental data reported in patent publication US20230079150A1, “METHODS FOR PREVENTION OR TREATMENT OF VIRUS-INDUCED ORGAN INJURY OR FAILURE WITH IL-22 DIMER” (priority 2020, published 2023).

Tested on: H1N1 influenza (A/PR8 strain)
Format: in vivo, C57BL/6 mice

B1: F-652: recombinant IL-22 dimer consisting of two monomeric subunits each comprising a sequence shown in SEQ ID NO: 24 (protein)
chain 1: APISSHCRLDKSNFQQPYITNRTFMLAKEASLADNNTDVRLIGEKLFHGVSMSERCYLMKQVLNFTLEEVLFPQSDRFQPYMQEVVPFLARLSNRLSTCHIEGDDLHIQRNVQKLKDTVKKLGESGEIKAIGELDLLFMSLRNACIGSGGGSGGGGSGGGGSVECPPCPAPPVAGPSVFLFPPKPKDTLMISRTPEVTCVVVDVSHEDPEVQFNWYVDGVEVHNAKTKPREEQFNSTFRVVSVLTVVHQDWLNGKEYKCKVSNKGLPASIEKTISKTKGQPREPQVYTLPPSREEMTKNQVSLTCLVKGFYPSDIAVEWESNGQPENNYKTTPPMLDSDGSFFLYSKLTVDKSRWQQGNVFSCSVMHEALHNHYTQKSLSLSPGK
chain 2: B1 chain 1
modifications: homodimer
B1 was tested, and the “decreased small airway resistance at baseline (pattern differences)” value (6-week treatment groups) was “not seen” and the “input impedance (Re Zrs): baseline resistance in small airways” value (aged mice, not young mice, prior to airway recruitment maneuver) was “significantly improves baseline resistance”.
